Our source for the reversible cross-linking and dissolution cycles (small amplitude oscillatory shear rheology, 660 nm / 740 nm) values is patent EP3919091A1.

The target of this assay is PIF6-SnoopCatcher (SnoopCatcher-mCherry-PIF6(A. thaliana, amino acids: 1-100, Cys9Ser, Cys10Ser)-His6), coupled to 8-arm PEG-SnoopTag (A. thaliana) (UniProt Q8L5W7). In words: cell-based or functional assay.
UniProt Q8L5W7, sequence (Q8L5W7 other isoform, or with tags, fused parts or gaps C10S C10S): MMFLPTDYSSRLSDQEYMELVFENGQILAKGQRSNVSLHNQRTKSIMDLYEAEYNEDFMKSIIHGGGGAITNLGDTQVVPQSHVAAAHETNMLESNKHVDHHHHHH

With “PhyB-SpyCatcher (PhyB(A. thaliana, amino acids: 1-651)-SpyCatcher-His6), coupled to 8-arm PEG-SpyTag (from UniProt P14713 1-651)”, the reversible cross-linking and dissolution cycles (small amplitude oscillatory shear rheology, 660 nm / 740 nm) is 5 times.
